Drawing on patent US20240033359A1 (Takeda / Millennium, published 2024), this text covers Kd, koff and EC50 for five molecules.

First the molecules themselves.
B1: V1 anti-GCC single domain VH antibody (VHH)
VHH: QVQLQESGPGLVKPSETLSLTCTVSGASISHYYWSWFRQPAGKGLEWIGRIYPSGSTSYNPSLKSRVAMSVDTPKNQFSLNLSSVTAADTAVYYCARDRSTGWSEWNSDLWGRGTLVTVSS
notes: Human heavy chain variable single domain antibody (VH only, no light chain), tested as recombinant purified VH; also called V1 VH
B2: V51 anti-GCC single domain VH antibody (VHH)
VHH: EVQLVESGGGLVQPGGSLRLSCAASGFTFSRYWMTWVRQAPGKGLEWVAKIRHDGGEKYYADSVKGRFTISRDNAKNSLYLQMNSLRAEDTAVYYCTRDYNKDYWGQGTLVTVSS
notes: Human heavy chain variable single domain antibody (VH only), tested as recombinant purified VH; No tags are stated
B3: V48 anti-GCC single domain VH antibody (VHH)
VHH: B2 VHH with S21T, A61P, I70V, N84D, S85N, V93M, Y104L
notes: as for B2
B4: V36 anti-GCC single domain VH antibody (VHH)
VHH: B2 VHH with V12A, K43G, G44R, R52K, H53Y, G56S, N84D
notes: as for B2
B5: V5 anti-GCC single domain VH antibody (VHH)
VHH: B2 VHH with E1Q, A23T, T35S, A61V, T97A, R98T, N101T, K102R, Y104V, L110A
notes: as for B2

For orientation: Kd means the constant that tells how readily two partners part at equilibrium. The low end stands for a tighter complex, the high end for a looser complex. A word on the koff: it is a measure of how fast the partners let go of each other. Lower therefore signals a long-lived complex. What is called EC50 is the concentration that produces a half-maximal response. Read a high EC50 as a need for much substance.

Positions count from the first letter of the chain named.

T1 sequence (P25092 24-430 limits assumed): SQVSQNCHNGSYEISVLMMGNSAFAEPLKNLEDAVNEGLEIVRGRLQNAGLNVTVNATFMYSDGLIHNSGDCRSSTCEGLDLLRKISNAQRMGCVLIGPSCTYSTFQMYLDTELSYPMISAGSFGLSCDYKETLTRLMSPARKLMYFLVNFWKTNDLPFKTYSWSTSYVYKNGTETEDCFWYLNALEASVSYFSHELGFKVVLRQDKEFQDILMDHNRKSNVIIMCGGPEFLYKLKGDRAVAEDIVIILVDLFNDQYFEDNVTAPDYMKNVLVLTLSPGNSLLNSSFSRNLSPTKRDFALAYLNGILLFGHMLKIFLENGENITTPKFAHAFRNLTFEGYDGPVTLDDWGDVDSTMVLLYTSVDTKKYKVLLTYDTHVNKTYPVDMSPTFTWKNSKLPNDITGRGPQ

The first assay has as its target T1, human guanylyl cyclase C (GCC), as used in the Octet binding assay (human, UniProt P25092 24-430, limits assumed).
T1 construct: also called STAR; GUC2C
The assay is described as follows: Octet BLI, 1:1 model. How it is done:
Single domain heavy chain antibodies (VH) were generated that specifically target human GCC (e.g., anti-GCC binders provided in Tables 1-3). […] Binding kinetics were determined using an Octet binding assay. These were measured in real-time bio-layer interferometer based biosensor Octet (ForteBio). All the binding studies were performed in HBS-ET Octet kinetics buffer. Biosensors were always washed in Octet kinetics buffer in between different steps. A seven point, two-fold dilution series of each VH was made. The contact time for each of the association steps was 300 seconds and the dissociation step was varied between 400-600 seconds. Kinetic association (ka) and dissociation (kd) rate constants were determined by processing and fitting the data to a 1:1 binding model using ForteBio Analysis software.
On the technique in general: In BLI a coated tip is dipped into the sample, and binding shifts an interference pattern.
B1 registered a Kd of 0.329 nM and a koff of 0.000208 s⁻¹.

Molecule B2 came in with a Kd of 9.54 nM and a koff of 0.00185 s⁻¹.

Regarding B3, the Kd is 1.38 nM and the off-rate constant (koff) stood at 0.000341 s⁻¹.

B4 displayed a Kd of 105 nM and a koff of 0.0035 s⁻¹.

B5 gave a Kd of 7.71 nM and an off-rate (koff) of 0.000719 s⁻¹.

The target in another assay is T2, GCC on CT26 cells.
T2 construct: whole, on cells; That the target is GCC is inferred from this context
T2 sequence (Q3UWA6 whole entry): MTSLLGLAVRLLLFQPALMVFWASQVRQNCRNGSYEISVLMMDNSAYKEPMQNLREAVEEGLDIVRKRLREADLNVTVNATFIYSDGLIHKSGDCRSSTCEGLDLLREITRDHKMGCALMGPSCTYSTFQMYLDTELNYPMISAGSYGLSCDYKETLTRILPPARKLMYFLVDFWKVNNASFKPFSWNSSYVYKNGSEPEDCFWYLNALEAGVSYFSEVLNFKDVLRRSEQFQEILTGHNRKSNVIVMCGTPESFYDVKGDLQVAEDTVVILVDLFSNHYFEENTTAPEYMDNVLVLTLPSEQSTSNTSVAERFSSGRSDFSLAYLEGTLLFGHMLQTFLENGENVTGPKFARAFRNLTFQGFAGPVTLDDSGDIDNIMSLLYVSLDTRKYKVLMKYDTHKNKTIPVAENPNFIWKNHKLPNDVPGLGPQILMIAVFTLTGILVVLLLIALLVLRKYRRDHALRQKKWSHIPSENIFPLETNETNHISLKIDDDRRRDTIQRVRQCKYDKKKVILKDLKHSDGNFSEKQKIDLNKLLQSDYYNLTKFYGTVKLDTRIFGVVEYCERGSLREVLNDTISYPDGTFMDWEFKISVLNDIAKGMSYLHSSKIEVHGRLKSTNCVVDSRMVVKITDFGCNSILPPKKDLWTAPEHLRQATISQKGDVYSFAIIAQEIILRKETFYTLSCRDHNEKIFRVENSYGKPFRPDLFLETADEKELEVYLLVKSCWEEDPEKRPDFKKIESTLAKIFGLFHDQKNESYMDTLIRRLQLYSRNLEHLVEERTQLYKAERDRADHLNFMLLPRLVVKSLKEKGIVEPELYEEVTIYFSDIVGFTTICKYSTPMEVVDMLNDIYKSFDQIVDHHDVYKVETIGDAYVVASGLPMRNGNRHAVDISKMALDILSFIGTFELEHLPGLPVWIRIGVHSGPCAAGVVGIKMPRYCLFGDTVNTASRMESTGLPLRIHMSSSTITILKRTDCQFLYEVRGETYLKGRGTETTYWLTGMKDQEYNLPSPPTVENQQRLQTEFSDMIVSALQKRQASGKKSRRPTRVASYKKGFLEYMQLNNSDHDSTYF
In words: flow cytometry on CT26 cells, dose response. How it is done: Binding of single domain antibodies to CT26 cells was measured using flow cytometry. CT26 cells were incubated with serially diluted VH and fluorescence was measured by flow cytometry. Anti-GCC VH antibodies were confirmed for binding to CT26 cells by a FACS dose response assay to obtain an on cell binding EC50 (nM) as shown in Table 4.
(A flow cytometer gives signals particle by particle.)
Consider B1, for which the EC50 was 0.72 nM.

The molecule B3 registered an EC50 of 1.01 nM.

In turn, B5 displayed a concentration giving a half-maximal response (EC50) of 1.52 nM.
